Source: patent publication US20230050380A1 (CHIOME BIOSCIENCE, published 2023)
Positions count from the first letter of the chain named.

T1: full-length hCDCP1 with N-terminal c-Myc tag (expression vector GS01), on Ba/F3-hCDCP1 cells or … (human, UniProt Q9H5V8 30-836)
T1 construct: also called human CDCP1; hCDCP1 forced expression cells
T1 sequence: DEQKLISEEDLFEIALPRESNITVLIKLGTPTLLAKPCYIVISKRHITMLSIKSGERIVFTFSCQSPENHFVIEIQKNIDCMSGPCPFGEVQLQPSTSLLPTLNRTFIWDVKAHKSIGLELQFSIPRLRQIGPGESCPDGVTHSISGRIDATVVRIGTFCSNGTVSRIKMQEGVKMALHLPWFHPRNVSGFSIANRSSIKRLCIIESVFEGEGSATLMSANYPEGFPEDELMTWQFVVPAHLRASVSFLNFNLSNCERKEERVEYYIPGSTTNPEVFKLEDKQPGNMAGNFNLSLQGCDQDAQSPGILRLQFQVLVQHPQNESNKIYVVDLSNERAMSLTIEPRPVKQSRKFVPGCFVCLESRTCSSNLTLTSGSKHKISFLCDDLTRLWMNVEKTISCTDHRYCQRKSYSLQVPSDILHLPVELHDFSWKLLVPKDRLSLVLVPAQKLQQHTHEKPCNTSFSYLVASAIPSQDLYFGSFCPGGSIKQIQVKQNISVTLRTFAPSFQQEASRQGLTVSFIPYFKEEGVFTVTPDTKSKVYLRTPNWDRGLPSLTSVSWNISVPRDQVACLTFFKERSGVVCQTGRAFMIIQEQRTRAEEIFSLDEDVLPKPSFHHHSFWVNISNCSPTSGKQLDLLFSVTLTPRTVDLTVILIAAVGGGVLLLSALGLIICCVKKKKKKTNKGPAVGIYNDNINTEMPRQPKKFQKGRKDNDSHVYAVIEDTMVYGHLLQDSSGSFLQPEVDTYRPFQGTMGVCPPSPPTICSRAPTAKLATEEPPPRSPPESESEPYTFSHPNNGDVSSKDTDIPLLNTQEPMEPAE

B1: h14A043VH1/VL1 (antibody, human IgG1, kappa)
heavy: not shown
light: EIVLTQSPATLSLSPGERATLSCSASSSVSYLYWYQQKPGQAPRPWIYLTSNLASGVPARFSGSGSGTDFTLTISSLEPEDFAVYYCQQWSSNPFTFGGGTKVEIKRTVAAPSVFIFPPSDEQLKSGTASVVCLLNNFYPREAKVQWKVDNALQSGNSQESVTEQDSKDSTYSLSSTLTLSKADYEKHKVYACEVTHQGLSSPVTKSFNRGEC
notes: humanized antibody, human IgG1/kappa constant regions; also called h14A043VH1/VL1-biotin (biotinylated form)
B2: h14A043VH2/VL1 (antibody, human IgG1, kappa)
heavy: not shown
light: B1 light
notes: humanized antibody, human IgG1/kappa constant regions; also called h14A043VH2/VL1-biotin (biotinylated form)
B3: h14A043VH2/VL2 (antibody, human IgG1, kappa, V domains shown)
VH: QVQLVQSGAEVKKPGSSVKVSCKASGFNIKDYYMNWVRQAPGQGLEWIGWIDPENANTIYDPKFQGRATITADESTSTAYMELSSLRSEDTAVYYCYGSSYRFTYWGQGTLVTVSS
VL: EIVLTQSPATLSLSPGERATLSCSASSSVSYLYWYQQKPGQAPRPWIYLTSNLASGVPARFSGSGSGTDYTLTISSLEPEDFAVYYCQQWSSNPFTFGGGTKVEIKR
notes: humanized antibody, human IgG1/kappa constant regions
B4: h14A043VH1/VL2 (antibody, human IgG1, kappa, V domains shown)
VH: B3 VH with A68V
VL: B3 VL
notes: humanized antibody, human IgG1/kappa constant regions; also called h14A043VH1/VL2-biotin (biotinylated form)
B5: h14A043VH1/VL3 (antibody, human IgG1, kappa)
heavy: not shown
light: B1 light with T5I
notes: humanized antibody, human IgG1/kappa constant regions; also called h14A043VH1/VL3-biotin (biotinylated form)
B6: h14A043VH2/VL3 (antibody, human IgG1, kappa)
heavy: not shown
light: B1 light with T5I
notes: as for B3
B7: mh14A063HCori/LCv1 (antibody, human IgG1, kappa, V domains shown)
VH: EVQLQESGGGLVQPGGSLKLSCAASGFTFSSYTMSWVRQTPEKRLEWVAYISNGGGSTYYPDTVKGRFTISRDNAKNTLYLQMSSLKSEDTAMYYCARYDLGFAYWGQGTLVTVSS
VL: NIVLTQSPASLAVSLGQRATISCRASESVDSYGNSFLHWYQQKPGQPPKLLIFLASNLESGVPARFSGSGSRTDFTLTIDPVEADDAATYYCQQNNEDPWTFGGGTNLEIKR
notes: mouse-human chimeric antibody, human IgG1/kappa constant regions
B8: mh14A063HCv1/LCori (antibody, human IgG1, kappa, V domains shown)
VH: B7 VH with N53S
VL: B7 VL with L37M
notes: as for B7
B9: mh14A063HCv2/LCv1 (antibody, human IgG1, kappa, V domains shown)
VH: B7 VH with G54A
VL: B7 VL
notes: as for B7
B10: mh14A063HCv2/LCori (antibody, human IgG1, kappa, V domains shown)
VH: B7 VH with G54A
VL: B7 VL with L37M
notes: as for B7
B11: mh14A063HCv1/LCv1 (antibody, human IgG1, kappa, V domains shown)
VH: B7 VH with N53S
VL: B7 VL
notes: as for B7
B12: mh14A025HCv24/LCori (antibody, human IgG1, kappa, V domains shown)
VH: EVQLQESGAELVRPGALVKLSCKASGFNIKDYYMHWVKQRPEQGLEWIGWIDPEWGNTIYDPKFQGKASITADTSSNTAYLQLSSLTSEDTAVYYCGGLLYAMDYWGQGTSVTVSS
VL: DIQMTQTTSSLSASLGDRVTISCRASQDISNYLNWYQQKPDGTVKLLIYFTSRLHSGVPSRFSGSGSGTDYSLTISNLEQEDIATYFCQQGNTLPRTFGGGTKLEIRR
notes: as for B7
B13: mh14A043HCv1/LCv1 (antibody, human IgG1, kappa, V domains shown)
VH: B12 VH with H35N, W55S, G97Y, L99S, L100S, A102R, M103F, D104T, S111L
VL: QIVLIQSPALMSASPGEKVTMTCSASSSVSYLYWYQQKPRSSPKPWIYLTSNLASGVPARFSGSGSGTSYSLTISSMEAEDAATYYCQQWSSNPFTFGSGTKLEIKR
notes: as for B7
B14: mh14A043HCv1/LCori (antibody, human IgG1, kappa, V domains shown)
VH: B12 VH with H35N, W55S, G97Y, L99S, L100S, A102R, M103F, D104T, S111L
VL: B13 VL with L32M
notes: as for B7
B15: mh14A043HCv2/LCori (antibody, human IgG1, kappa, V domains shown)
VH: B12 VH with H35N, W55N, G56A, G97Y, L99S, L100S, A102R, M103F, D104T, S111L
VL: B13 VL with L32M
notes: as for B7
B16: mh14A043HCori/LCv1 (antibody, human IgG1, kappa, V domains shown)
VH: B12 VH with H35N, W55N, G97Y, L99S, L100S, A102R, M103F, D104T, S111L
VL: B13 VL
notes: as for B7
B17: mh14A043HCv2/LCv1 (antibody, human IgG1, kappa, V domains shown)
VH: B12 VH with H35N, W55N, G56A, G97Y, L99S, L100S, A102R, M103F, D104T, S111L
VL: B13 VL
notes: as for B7
B18: h12A041VH1/VL (antibody, human IgG1, kappa, V domains shown)
VH: QVTLRESGPALVKPTQTLTLTCTFSGFSLSTSGMGVSWIRQPPGKALEWLAHIYWDDDKRYNPSLKSRLTISKDTSKNQVVLTMTNMDPVDTATYYCARSGSYYGSSLDSWGQGTTVTVSS
VL: DIVMTQSPLSLPVTPGEPASISCRSSQSIVHSSGNTYLEWYLQKPGQSPQLLIYKVSNRFSGVPDRFSGSGSGTDFTLKISRVEAEDVGVYYCFQGSHVPWTFGGGTKVEIKR
notes: humanized antibody, human IgG1/kappa constant regions; also called h12A041VH1/VL-biotin (biotinylated form)
B19: h12A041VH2A/VLB (antibody, human IgG1, kappa, V domains shown)
VH: B18 VH with S32F, A46G
VL: B18 VL with S28N, S33D
notes: as for B3
B20: h12A041VH1/VLB (antibody, human IgG1, kappa, V domains shown)
VH: B18 VH
VL: B18 VL with S28N, S33D
notes: humanized antibody, human IgG1/kappa constant regions; also called h12A041VH1/VLB-biotin (biotinylated form)
B21: h12A041VH2A/VLA (antibody, human IgG1, kappa, V domains shown)
VH: B18 VH with S32F, A46G
VL: B18 VL with H31Y
notes: as for B3
B22: h12A041VH1/VLA (antibody, human IgG1, kappa, V domains shown)
VH: B18 VH
VL: B18 VL with H31Y
notes: humanized antibody, human IgG1/kappa constant regions; also called h12A041VH1/VLA-biotin (biotinylated form); h12A041VH1NLA-biotin
B23: h12A041VH1A/VLA (antibody, human IgG1, kappa, V domains shown)
VH: B18 VH with S32F
VL: B18 VL with H31Y
notes: as for B3
B24: h12A041VH1A/VLB (antibody, human IgG1, kappa, V domains shown)
VH: B18 VH with S32F
VL: B18 VL with S28N, S33D
notes: as for B3
B25: h12A041VH2/VL (antibody, human IgG1, kappa, V domains shown)
VH: B18 VH with A46G
VL: B18 VL
notes: as for B3
B26: h12A041VH1A/VL (antibody, human IgG1, kappa, V domains shown)
VH: B18 VH with S32F
VL: B18 VL
notes: humanized antibody, human IgG1/kappa constant regions; also called h12A041VH1A/VL-biotin (biotinylated form)
B27: h12A041VH2A/VL (antibody, human IgG1, kappa, V domains shown)
VH: B18 VH with S32F, A46G
VL: B18 VL
notes: as for B3
B28: h12A041VH2/VLA (antibody, human IgG1, kappa, V domains shown)
VH: B18 VH with A46G
VL: B18 VL with H31Y
notes: as for B3
B29: h12A041VH2/VLB (antibody, human IgG1, kappa, V domains shown)
VH: B18 VH with A46G
VL: B18 VL with S28N, S33D
notes: as for B3
B30: h14A063VH2/VL1 (antibody, human IgG1, kappa)
heavy: not shown
light: EIVLTQSPATLSLSPGERATLSCRASESVDSYGNSFMHWYQQKPGQAPRLLIFLASNLESGVPARFSGSGSRTDFTLTISSLEPEDFAVYYCQQNNEDPWTFGGGTKVEIKRTVAAPSVFIFPPSDEQLKSGTASVVCLLNNFYPREAKVQWKVDNALQSGNSQESVTEQDSKDSTYSLSSTLTLSKADYEKHKVYACEVTHQGLSSPVTKSFNRGEC
notes: as for B3
B31: h14A063VH2/VL2 (antibody, human IgG1, kappa)
heavy: not shown
light: B30 light with R72G
notes: as for B3

target: T1, full-length hCDCP1 with N-terminal …; assay: flow cytometry on Ba/F3-hCDCP1 cells

binding result	Binder
binds	B1
binds	B2
binds	B3
binds	B4
binds	B5
binds	B6
binds	B7
binds	B8
binds	B9
binds	B10
binds	B11
binds	B12
binds	B13
binds	B14
binds	B15
binds	B16

binding result	Binder
binds	B17
binds	B18
binds	B19
binds	B20
binds	B21
binds	B22
binds	B23
binds	B24
binds	B25
binds	B26
binds	B27
binds	B28
binds	B29
binds	B30
binds	B31
